According to the supplement of paper PMC9112550, “Optimization of the antimicrobial peptide Bac7 by deep mutational scanning” (BMC Biology, 2022):

System: Escherichia coli TOP10
Experiment: shrunken log2 fold change of peptide-encoding DNA abundance (4.5 h post-induction vs induction); higher = less antimicrobial activity (less host growth inhibition)
Conditions: time post-induction: 4.5 h; library: site-saturation at positions 5, 18, 19, 20
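Further: peptides expressed intracellularly from a pBAD plasmid library in pooled LB shake-flask culture, induced with 0.3% L-arabinose, DNA abundance read by NGS, three biological replicates, DESeq2 with apeglm shrinkage.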

Sequence	shrunken log2 fold change
RRIRKRPPRLPRPRPRPETYPRP	-0.00198
RRIRHRPPRLPRPRPRPSNVPRP	-0.00144
RRIRHRPPRLPRPRPRPWEEPRP	-0.0121
RRIRIRPPRLPRPRPRPLPFPRP	-1.01
RRIRQRPPRLPRPRPRPVFTPRP	-0.217
RRIRLRPPRLPRPRPRPNMRPRP	0.0295
RRIRVRPPRLPRPRPRPELMPRP	-0.0669
RRIRSRPPRLPRPRPRPFFDPRP	0.192
RRIRARPPRLPRPRPRPASKPRP	0.0747
RRIRPRPPRLPRPRPRPGSHPRP	0.142
RRIRYRPPRLPRPRPRPPNIPRP	-0.659
RRIRARPPRLPRPRPRPAWDPRP	0.858
RRIRVRPPRLPRPRPRPIFKPRP	-0.0901
RRIRYRPPRLPRPRPRPDSWPRP	-0.602
RRIRHRPPRLPRPRPRPFSKPRP	0.0242
RRIRERPPRLPRPRPRPYWMPRP	-0.438
RRIRFRPPRLPRPRPRPWHPPRP	-0.409
RRIRRRPPRLPRPRPRPTRPPRP	1.02
RRIRNRPPRLPRPRPRPMAEPRP	0.0284
RRIRGRPPRLPRPRPRPTEHPRP	0.569
RRIRQRPPRLPRPRPRPLSTPRP	0.175
RRIRWRPPRLPRPRPRPNRKPRP	-0.239
RRIRRRPPRLPRPRPRPTSWPRP	1.52
RRIRWRPPRLPRPRPRPPFIPRP	-0.117
RRIRHRPPRLPRPRPRPSSMPRP	-0.474

Sequence	shrunken log2 fold change
RRIRMRPPRLPRPRPRPTGQPRP	0.636
RRIRVRPPRLPRPRPRPGHDPRP	-0.116
RRIRTRPPRLPRPRPRPPQSPRP	0.441
RRIRLRPPRLPRPRPRPDTTPRP	-0.138
RRIRQRPPRLPRPRPRPVAVPRP	0.257
RRIRERPPRLPRPRPRPAVFPRP	0.154
RRIRCRPPRLPRPRPRPVWMPRP	-0.179
RRIRCRPPRLPRPRPRPLHIPRP	-0.335
RRIRDRPPRLPRPRPRPLTYPRP	-0.339
RRIRCRPPRLPRPRPRPEDRPRP	-0.0137
RRIRERPPRLPRPRPRPQRQPRP	0.0791
RRIRDRPPRLPRPRPRPWTSPRP	0.21
RRIRSRPPRLPRPRPRPIQMPRP	-0.103
RRIRGRPPRLPRPRPRPMHNPRP	0.383
RRIRRRPPRLPRPRPRPKMRPRP	0.733
RRIRSRPPRLPRPRPRPAQNPRP	0.241
RRIRWRPPRLPRPRPRPIYRPRP	0.0155
RRIRCRPPRLPRPRPRPMPEPRP	0.122
RRIRDRPPRLPRPRPRPHNRPRP	-0.00159
RRIRFRPPRLPRPRPRPRGIPRP	-0.123
RRIRVRPPRLPRPRPRPPKHPRP	0.0761
RRIRPRPPRLPRPRPRPRWMPRP	0.412
RRIRWRPPRLPRPRPRPWKMPRP	-0.0467
RRIRERPPRLPRPRPRPNITPRP	-0.738
RRIRKRPPRLPRPRPRPQKFPRP	0.0144

Sequence	shrunken log2 fold change
RRIRFRPPRLPRPRPRPQCMPRP	0.000372
RRIRCRPPRLPRPRPRPPCEPRP	-0.0942
RRIRYRPPRLPRPRPRPQDCPRP	-0.363
RRIRLRPPRLPRPRPRPQSKPRP	-0.224
RRIRHRPPRLPRPRPRPKFAPRP	0.00298
RRIRGRPPRLPRPRPRPLKFPRP	0.11
RRIRTRPPRLPRPRPRPDHRPRP	0.0733
RRIRTRPPRLPRPRPRPFMRPRP	-0.0135
RRIRCRPPRLPRPRPRPQPDPRP	0.102
RRIRNRPPRLPRPRPRPAAYPRP	-0.0872
RRIRWRPPRLPRPRPRPETYPRP	-0.231
RRIRKRPPRLPRPRPRPVMGPRP	0.155
RRIRLRPPRLPRPRPRPIHIPRP	-0.374
RRIRNRPPRLPRPRPRPLDWPRP	-0.0554
RRIRIRPPRLPRPRPRPHNSPRP	-0.132
RRIRSRPPRLPRPRPRPVWNPRP	-0.372
RRIRIRPPRLPRPRPRPWEKPRP	-0.00992
RRIRKRPPRLPRPRPRPIWWPRP	0.0844
RRIRARPPRLPRPRPRPLPYPRP	0.0356
RRIRYRPPRLPRPRPRPCAAPRP	-0.642
RRIRLRPPRLPRPRPRPLTHPRP	-0.0644
RRIRSRPPRLPRPRPRPEKTPRP	0.125
RRIRDRPPRLPRPRPRPVADPRP	0.22
RRIRHRPPRLPRPRPRPESNPRP	-0.131
RRIRRRPPRLPRPRPRPVTTPRP	0.48

Sequence	shrunken log2 fold change
RRIRWRPPRLPRPRPRPVMDPRP	-0.385
RRIRFRPPRLPRPRPRPMYLPRP	-0.376
RRIRFRPPRLPRPRPRPCHYPRP	-0.211
RRIRGRPPRLPRPRPRPFYEPRP	0.0153
RRIRNRPPRLPRPRPRPSVFPRP	-0.342
RRIRIRPPRLPRPRPRPSASPRP	0.0632
RRIRERPPRLPRPRPRPDLLPRP	-0.183
RRIRARPPRLPRPRPRPWIEPRP	-0.105
RRIRKRPPRLPRPRPRPTIVPRP	-0.0951
RRIRDRPPRLPRPRPRPWVGPRP	0.0332
RRIRNRPPRLPRPRPRPHLCPRP	0.183
RRIRGRPPRLPRPRPRPNLYPRP	0.0462
RRIRWRPPRLPRPRPRPPNPPRP	0.878
RRIRYRPPRLPRPRPRPAGSPRP	0.0105
RRIRFRPPRLPRPRPRPCHIPRP	-0.11
RRIRTRPPRLPRPRPRPACLPRP	-0.217
RRIRARPPRLPRPRPRPACIPRP	0.171
RRIRCRPPRLPRPRPRPWRIPRP	-0.321
RRIRMRPPRLPRPRPRPMYTPRP	-0.71
RRIRPRPPRLPRPRPRPRKEPRP	-0.157
RRIRHRPPRLPRPRPRPCPDPRP	0.0299
RRIRVRPPRLPRPRPRPWDIPRP	-0.235
RRIRNRPPRLPRPRPRPHLMPRP	-0.584
RRIRWRPPRLPRPRPRPSMPPRP	-0.423
RRIRVRPPRLPRPRPRPCQMPRP	-0.486

Sequence	shrunken log2 fold change
RRIRERPPRLPRPRPRPFISPRP	-0.0623
RRIRHRPPRLPRPRPRPCVAPRP	0.0478
RRIRPRPPRLPRPRPRPKMCPRP	0.0196
RRIRDRPPRLPRPRPRPTIPPRP	0.0494
RRIRCRPPRLPRPRPRPAFVPRP	0.179
RRIRLRPPRLPRPRPRPTTVPRP	-0.175
RRIRKRPPRLPRPRPRPGRIPRP	-0.0354
RRIRKRPPRLPRPRPRPYKAPRP	-0.0235
RRIRTRPPRLPRPRPRPHSIPRP	-0.0668
RRIRIRPPRLPRPRPRPHLMPRP	-1.31
RRIRERPPRLPRPRPRPGPTPRP	0.215
RRIRGRPPRLPRPRPRPYEIPRP	-0.132
RRIRIRPPRLPRPRPRPCCCPRP	-0.641
RRIRFRPPRLPRPRPRPHLAPRP	-0.0213
RRIRQRPPRLPRPRPRPPPNPRP	0.508
RRIRVRPPRLPRPRPRPKREPRP	0.225
RRIRGRPPRLPRPRPRPFFTPRP	0.215
RRIRARPPRLPRPRPRPDNGPRP	-0.19
RRIRRRPPRLPRPRPRPPEHPRP	0.14
RRIRTRPPRLPRPRPRPCWRPRP	0.156
RRIRPRPPRLPRPRPRPLICPRP	-0.164
RRIRIRPPRLPRPRPRPYRRPRP	-0.648
RRIRQRPPRLPRPRPRPKIIPRP	-0.367
RRIRTRPPRLPRPRPRPNNEPRP	-0.581
RRIRVRPPRLPRPRPRPQYTPRP	-0.526

Sequence	shrunken log2 fold change
RRIRWRPPRLPRPRPRPTDLPRP	0.0776
RRIRQRPPRLPRPRPRPYWVPRP	-0.264
RRIRERPPRLPRPRPRPKWFPRP	-0.0144
RRIRNRPPRLPRPRPRPQFEPRP	-0.013
RRIRDRPPRLPRPRPRPSCCPRP	1.57
RRIRQRPPRLPRPRPRPMLNPRP	0.014
RRIRQRPPRLPRPRPRPVWWPRP	0.015
RRIRHRPPRLPRPRPRPHPSPRP	0.0305
RRIRDRPPRLPRPRPRPFIFPRP	-0.0526
RRIRCRPPRLPRPRPRPMVLPRP	-0.388
RRIRQRPPRLPRPRPRPGHIPRP	-0.0594
RRIRARPPRLPRPRPRPQIWPRP	0.166
RRIRHRPPRLPRPRPRPTPEPRP	-0.0453
RRIRVRPPRLPRPRPRPLYEPRP	-0.168
RRIRPRPPRLPRPRPRPNGDPRP	-0.0945
RRIRKRPPRLPRPRPRPSGHPRP	-0.0496
RRIRHRPPRLPRPRPRPINVPRP	-1.14
RRIRDRPPRLPRPRPRPFPYPRP	-0.136
RRIRSRPPRLPRPRPRPLAIPRP	-0.0883
RRIRVRPPRLPRPRPRPRDNPRP	-0.109
RRIRTRPPRLPRPRPRPRWHPRP	0.133
RRIRWRPPRLPRPRPRPYEQPRP	-0.398
RRIRSRPPRLPRPRPRPCDDPRP	0.161
RRIRSRPPRLPRPRPRPEKVPRP	-0.1
RRIRYRPPRLPRPRPRPISKPRP	-0.562
